Assay results as given in US20150218250A1.
One block for each substance: values may come before it.

What was measured:
[1] = biological target: antibody captured by the human Fab capture kit; test: SPR (BIAcore), antibody captured via human Fab capture kit, 50 nM receptor injected as analyte
[2] = biological target: antibody captured by the human Fab capture kit; test: SPR (BIAcore), antibody captured via human Fab capture kit, 50 nM receptor fusion injected as analyte
[3] = biological target: -; test: SPR; monomeric, middle panel
[4] = biological target: -; test: SPR; monomeric, top panel

- response units [1]: 40 RU
Substance: FcgammaRIIIaV158 (HisAvi-tag comprising functional variant) (receptor)

- response units [2]: > 100 RU
Substance: FcgammaRIIIaV158-Avi-IgA Protease-Fc LALA P329G fusion polypeptide (Fc fusion)

- Kd [3]: 0.801 nM
Substance: monomeric IL18R-Fc fusion polypeptide (middle)

- Kd [4]: 0.921 nM
Substance: monomeric IL18R-Fc fusion polypeptide (top)
